Measurements: article PMC7244311

Target: talin R3 IVVI domain in the (R3)-(I91)8 construct (mouse)
Assay: magnetic tweezers force spectroscopy

concentration at half the maximum binding velocity, 9 pN: 0.09 µM
stoichiometry N: 2
Substance: vinculin head (domain or fragment)
